Measurements taken from US20150158947A1 (COMPUGEN, published 2015).
Substitutions are numbered along the chain they refer to. Several values for one entry are separate records, joined by “and”; a condition that tells them apart may be missing. Equal entries are not always repeated. Values belong to the binder of their own block, whether it stands above or below them.

Experiments:
[1] = target: T1, human C1ORF32-HA tagged protein (SEQ ID NO: 22) (human); assay: flow cytometry on HEK293T cells expressing human C1ORF32-HA tagged (SEQ ID NO: 22), antibody 20 ug/ml, anti mouse DyLight 549 secondary
T1 chain: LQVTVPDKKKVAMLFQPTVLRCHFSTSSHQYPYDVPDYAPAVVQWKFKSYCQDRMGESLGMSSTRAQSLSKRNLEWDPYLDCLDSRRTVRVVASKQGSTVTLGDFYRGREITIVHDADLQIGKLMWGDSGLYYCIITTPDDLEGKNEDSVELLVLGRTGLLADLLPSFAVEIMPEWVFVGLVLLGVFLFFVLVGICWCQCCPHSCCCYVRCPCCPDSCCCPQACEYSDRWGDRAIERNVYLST
Experimental: (§1) FIG. 5A presents empty vector transfected cells; FIG. 5B presents human-C1ORF32 transfected cells (SEQ ID NO:1), FIG. 5C presents human-C1ORF32-HA tagged transfected cells(SEQ ID NO: 22); FIG. 5D presents chimeric mouse-human C1ORF32 transfected cells (SEQ ID NO: 8); FIG. 5E presents mouse C1ORF32 transfected cells (SEQ ID NO: 21).
(§2) Flow Cytometry analysis was performed to verify the mAbs binding to native cell surfaced C1ORF32 protein (SEQ ID NO: 1) in stable transfected cells described above. […] Anti-Cephalosporin served as negative control (SLRC, CH2025P). Recombinant HEK293T cells expressing C1ORF32 proteins, i.e. human C1ORF32 (SEQ ID NO:1), chimeric human-mouse C1ORF32 (SEQ ID NO:8) and mouse C1ORF32—Flag tagged (SEQ ID NO:21) were stained with anti C1ORF32 antibodies or anti-Cephalosporin followed by Donkey Anti Mouse-DyLight 549 conjugated secondary Ab (Jackson 715-506-150) as described in Example 6, herein. Fluorescent signal was observed.

[2] = target: T2, chimeric mouse-human C1ORF32 (SEQ ID NO: 8) (chimeric mouse (ECD) / human (tail), UniProt B5TVM2 36-249); assay: flow cytometry on HEK293T cells expressing chimeric mouse-human C1ORF32 (SEQ ID NO: 8; panel title: 293T-C1ORF32 HA MUTATED CELLS), antibody 20 ug/ml, anti mouse DyLight 549 secondary
T2 construct: also called mouse-human chimeric C1ORF32; chimeric human-mouse C1ORF32
T2 chain: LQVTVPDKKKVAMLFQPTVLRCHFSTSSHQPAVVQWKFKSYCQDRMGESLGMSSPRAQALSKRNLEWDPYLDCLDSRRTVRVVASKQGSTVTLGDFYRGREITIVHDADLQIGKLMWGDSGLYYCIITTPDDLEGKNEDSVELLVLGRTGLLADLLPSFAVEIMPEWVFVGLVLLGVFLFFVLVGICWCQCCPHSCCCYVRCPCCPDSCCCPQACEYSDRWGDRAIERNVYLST
Experimental: as §1, §2

[3] = target: T3, human C1ORF32 protein (SEQ ID NO: 1) (human, UniProt Q71H61 21-234); assay: flow cytometry on HEK293T cells expressing human C1ORF32 untagged (SEQ ID NO: 1), antibody 20 ug/ml, anti mouse DyLight 549 secondary
T3 construct: Stained on cells in flow cytometry and IHC, and probed in whole-cell lysates in Western blots; also called ILDR2; short isoform of human C1ORF32
T3 sequence: T2 chain with P55T, A59S
Experimental: as §1, §2

[4] = target: T4, C1ORF32-ECD-mouse IgG2a-fused protein (SEQ ID NO: 4) (human C1ORF32 ECD, mouse IgG2a Fc); assay: hybridoma binding screen by ELISA on ECD-mIgG2a fusion protein (SEQ ID NO: 4) or on HEK-293T cells over expressing C1ORF32
T4 construct: Purified recombinant fusion protein; also called C1ORF32-ECD-mouse IgG2a fusion protein; recombinant ECD-mIgG2a fusion protein
T4 chain: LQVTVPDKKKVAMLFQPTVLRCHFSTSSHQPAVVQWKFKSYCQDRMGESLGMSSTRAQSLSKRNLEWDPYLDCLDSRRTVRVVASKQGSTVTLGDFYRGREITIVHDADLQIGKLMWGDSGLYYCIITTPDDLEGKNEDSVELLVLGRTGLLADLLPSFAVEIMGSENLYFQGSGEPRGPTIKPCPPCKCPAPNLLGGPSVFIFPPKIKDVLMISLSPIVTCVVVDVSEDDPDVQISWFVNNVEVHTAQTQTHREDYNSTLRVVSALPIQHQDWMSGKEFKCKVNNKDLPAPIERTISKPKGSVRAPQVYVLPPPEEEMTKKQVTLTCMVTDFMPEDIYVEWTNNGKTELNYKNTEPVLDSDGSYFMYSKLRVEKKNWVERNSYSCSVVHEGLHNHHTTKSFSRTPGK
Excerpt: Three positive clones were further processed for subcloning in order to establish stable hybridoma clones. Hybridomas were stabilized, subcloned and processed for antibody production and purification.

[5] = target: T5, mouse C1ORF32-Flag tagged protein (SEQ ID NO: 21) (mouse, UniProt B5TVM2 36-661); assay: flow cytometry on HEK293T cells expressing mouse C1ORF32-Flag (SEQ ID NO: 21; panel title: 293-C1ORF32 HA MOUSE CELLS), antibody 20 ug/ml, anti mouse DyLight 549 secondary
T5 sequence: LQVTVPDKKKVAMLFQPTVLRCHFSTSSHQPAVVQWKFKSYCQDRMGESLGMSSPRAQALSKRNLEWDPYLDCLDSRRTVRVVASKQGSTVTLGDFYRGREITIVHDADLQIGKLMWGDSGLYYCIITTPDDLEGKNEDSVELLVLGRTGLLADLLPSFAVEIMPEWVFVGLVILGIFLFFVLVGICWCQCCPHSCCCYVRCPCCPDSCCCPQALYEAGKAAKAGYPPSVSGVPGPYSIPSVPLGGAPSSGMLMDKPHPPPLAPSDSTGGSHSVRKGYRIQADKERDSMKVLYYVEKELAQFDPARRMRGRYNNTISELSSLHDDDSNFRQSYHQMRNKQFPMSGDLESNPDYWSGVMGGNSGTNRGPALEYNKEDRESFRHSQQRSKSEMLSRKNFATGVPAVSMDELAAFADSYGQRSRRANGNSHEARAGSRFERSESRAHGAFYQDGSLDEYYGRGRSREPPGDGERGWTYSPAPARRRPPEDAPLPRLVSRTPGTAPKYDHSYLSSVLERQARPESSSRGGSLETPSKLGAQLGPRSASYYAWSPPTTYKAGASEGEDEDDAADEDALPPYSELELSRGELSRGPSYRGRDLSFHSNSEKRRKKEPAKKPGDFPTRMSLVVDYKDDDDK
Experimental: as §1, §2

[6] = target: T3, human C1ORF32 protein (SEQ ID NO: 1); assay: flow cytometry titration of 5159-1 on HEK293T cells expressing human C1ORF32
Experimental: (§3) The cells were washed once in FACS buffer, re-suspended in 25 ul of Alexa Fluor 647 conjugated F(ab′)2 fragment of goat anti mouse IgG (Jackson Immunoresearch cat#115-606-146) for 30 minutes at 4 degrees C. The cells were washed again in FACS buffer, re-suspended in 35 ul of FACS buffer and 35 ul of 4% paraformaldehyde and analysed on either a FACS Calibur or an Intellicyt HTFC. Data was analyzed by FlowJo, Excel and GraphPad Prism.

[7] = target: T3, human C1ORF32 protein (SEQ ID NO: 1); assay: flow cytometry titration of 5159-1 on CHOK1 cells expressing human C1ORF32
Experimental: as §3

[8] = target: T6, C1ORF32-ECD-mIgG2a fusion protein (SEQ ID NO: 24); assay: hybridoma binding screen by ELISA on fusion proteins SEQ ID NO: 23 and SEQ ID NO: 24 or on HEK293T cells over expressing C1ORF32
T6 chain: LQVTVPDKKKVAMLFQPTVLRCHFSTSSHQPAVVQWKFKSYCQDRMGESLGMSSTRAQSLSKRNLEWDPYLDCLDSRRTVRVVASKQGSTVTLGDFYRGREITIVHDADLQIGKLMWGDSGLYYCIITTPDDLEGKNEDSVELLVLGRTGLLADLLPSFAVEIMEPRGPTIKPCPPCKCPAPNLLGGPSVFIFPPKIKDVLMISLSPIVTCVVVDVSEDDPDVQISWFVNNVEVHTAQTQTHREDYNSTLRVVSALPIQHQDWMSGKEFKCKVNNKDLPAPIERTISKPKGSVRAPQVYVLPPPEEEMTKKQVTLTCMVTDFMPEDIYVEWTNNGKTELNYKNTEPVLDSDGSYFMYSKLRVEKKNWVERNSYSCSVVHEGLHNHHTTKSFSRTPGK
Experimental: (§4) Binding screening was performed by ELISA using fusion proteins C1ORF32-ECD-hIgG1 (SEQ ID NO: 23) and C1ORF32-ECD-mIgG2a (SEQ ID NO: 24) or stable pool of HEK293T cells over expressing C1ORF32 described in section “Generation of stable pools expressing C1ORF32 protein” herein. […] Hybridomas were stabilized, subcloned and processed for antibody production and purification.

[9] = target: C1ORF32-ECD-hIgG1 fusion protein (SEQ ID NO: 23); assay: as above
Experimental: as §4

[10] = target: T3, human C1ORF32 protein (SEQ ID NO: 1); assay: cell-based or functional assay

binding result [8]: binds
binding result [9]: binds
B3: anti C1ORF32 monoclonal antibody 5166-2 (antibody, V domains shown)
VH: QIQLVQSGPELKKPGETVKISCKASAYTFTDYSMHWVKQAPGKGLKWMGWINTETGEPTYAGDFKGRFAFSLETSASTAYLQINNLKNEDTATYFCVRAGYYDYFDYWGQGTTLTVSS
VL: DIVMTQSHKFMSTSVGDRVSITCKASQDVVTAVAWYQQKPGQSPKLLIYWASNRHTGVPDRFTGSGSGTDFTLTITNVQSEDLADYFCQQYSSYPLTFGGGTKLEIK
notes: Murine IgG1 k from a hybridoma

binding result [8]: binds
binding result [9]: binds
B4: anti C1ORF32 monoclonal antibody 5166-9 (antibody, V domains shown)
VH: EVKMVESGGGLVQPGGSLKLSCATSGFTFSDYYMYWVRQTPEKRLEWVAYISNGGGSTYYPDTVKGRFTISRDNAKNTLYLQMSRLKSEDTAMYYCARQGYYYGSSPFAYWGQGTLVTVSA
VL: DIVMTQSHKFMSTSVGDRVSITCKASQDVSTAVAWYQQKPGQSPKLLIYSASYRYTGVPDRFTGSGSGTDFTFTISSVQAEDLAVYYCQQHYSTPYTFGGGTKLEIK
notes: Murine IgM k from a hybridoma
CDC activity, EC50, on CHOK1 cells expressing C1ORF32 (CellTiter-Glo viability, rabbit complement, 1 hr) [10]: 33 ng/ml and 0.2 nM
CDC activity, EC50, on HEK293T cells expressing C1ORF32 (CellTiter-Glo viability, rabbit complement, 1 hr) [10]: 1.8 ng/ml and 0.01 nM

The next lines start with the binder.

B1: anti C1ORF32 monoclonal antibody 5159-2 (antibody, V domains shown)
VH: QVTLKESDPGILQPSQTLSLTCSFSGFSLSTSGMGVGWIRQPSGKGLEWLAHIWWDDVKRYNSALKNRLTISKDTSSSQVFLKIANVDTADTATYYCARIARHFFDYWGQGTTLTVSS
VL: DIKMTQSPSSMYASLGERVTITCKASQDIHGYLSWFHQKPVKSPKTLIYRANRLIDGVPSRFSGSGSGQDYFLTISSLEYEDMGIYYCLQYDEFPWTFGGGTKLEIK
notes: as for B3
binding result [1]: binds
binding result [2]: binds
binding result [3]: binds
binding result [4]: binds
binding result [5]: binds

B2: anti C1ORF32 monoclonal antibody 5159-1 (antibody, V domains shown)
VH: QVTLKESGPGILQPSQTLNLTCSFSGFSLSSSYMGVGWIRQPSGKGLEWLAHIWWDDVKRYNPALKSRLTISKDISNNQVFLKIASVDTADSATYYCGRIDRHYFDYWGQGTILTVSS
VL: B1 VL with M11I, H30N, S34T, H37Q, V41G, I55L, F72S, E79D
notes: as for B3
binding result [1]: binds
EC50 (read off the curve) [6]: ~0.8 µg/mL
EC50 (read off the curve) [7]: ~1 µg/mL
binding result [2]: binds
binding result [4]: binds
